According to paper PMC5096685, “Characterization of CgHIFα-Like, a Novel bHLH-PAS Transcription Factor Family Member, and Its Role under Hypoxia Stress in the Pacific Oyster Crassostrea gigas”:

Columns and labels:
CgHIFα bHLH-PAS = biological target: T1, CgHIFα bHLH-PAS (Crassostrea gigas, UniProt B6ZGN4 1-356); assay: EMSA; no ARNT added; positive control; unlabeled Ew 200x competes; anti-His supershift; 10 mM Tris pH 7.5, 50 mM KCl, 1 mM DTT, 50 ng poly(dI-dC) in 20 uL, 20 min at room temperature; conditions: protein: recombinant; tags: His (pET30a); label: biotin end label (probe)
T1 sequence: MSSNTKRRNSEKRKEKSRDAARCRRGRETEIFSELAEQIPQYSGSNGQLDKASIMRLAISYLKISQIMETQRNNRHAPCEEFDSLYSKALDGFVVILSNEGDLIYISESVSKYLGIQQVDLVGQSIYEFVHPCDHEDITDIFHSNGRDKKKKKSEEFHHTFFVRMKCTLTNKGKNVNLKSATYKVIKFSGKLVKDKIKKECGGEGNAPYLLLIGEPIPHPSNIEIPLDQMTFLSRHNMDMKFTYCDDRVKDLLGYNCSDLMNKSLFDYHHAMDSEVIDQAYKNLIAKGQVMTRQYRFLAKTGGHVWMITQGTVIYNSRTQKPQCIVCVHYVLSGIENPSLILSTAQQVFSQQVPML

[1] = biological target: T2, CgHIFα-like bHLH-PAS (CgHIFαlike-His) (Crassostrea gigas, UniProt A0A167QPK5 1-385); assay: EMSA; no ARNT added; 1 ug protein, 20 fmol probe, 50 ng poly(dI-dC); unlabeled Ew 200x competes; anti-His supershift; 10 mM Tris pH 7.5, 50 mM KCl, 1 mM DTT, 50 ng poly(dI-dC) in 20 uL, 20 min at room temperature; conditions: protein: recombinant; tags: His (pET30a); label: biotin end label (probe)
T2 sequence: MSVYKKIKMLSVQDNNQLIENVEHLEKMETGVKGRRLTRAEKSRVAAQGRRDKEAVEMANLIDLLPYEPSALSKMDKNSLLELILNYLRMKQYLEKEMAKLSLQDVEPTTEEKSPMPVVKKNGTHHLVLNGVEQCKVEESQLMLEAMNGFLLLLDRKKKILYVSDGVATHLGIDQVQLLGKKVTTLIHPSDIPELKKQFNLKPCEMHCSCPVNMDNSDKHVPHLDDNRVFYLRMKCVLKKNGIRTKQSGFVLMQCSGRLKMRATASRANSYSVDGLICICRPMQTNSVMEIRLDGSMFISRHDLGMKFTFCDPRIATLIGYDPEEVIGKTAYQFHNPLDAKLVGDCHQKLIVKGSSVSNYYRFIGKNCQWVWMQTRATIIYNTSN

B1: Ew (human EPO HRE probe) (dsDNA)
DNA 1: GCCCTACGTGCTGTCTCA
DNA 2: TGAGACAGCACGTAGGGC
**Q.** Which results are given for B1?
**A.** binding result (CgHIFα bHLH-PAS): binds; binding result [1]: binds
